# Reference: patent EP1906184A1 (KYOWA HAKKO KOGYO CO., LTD., dated 2008)
# Biological target: T1, soluble human VEGF receptor KDR 7N (human, UniProt P35968 20-757)
# T1 construct: range 1-738; The range 1-738 counts on the mature protein, not on the precursor; Expressed in High Five insect cells (purity 70 to 80%); not shown: two amino acid residues derived from a linker
# Assay: ELISA, receptor coated at 4 µg/ml
# T1 sequence (P35968 20-757): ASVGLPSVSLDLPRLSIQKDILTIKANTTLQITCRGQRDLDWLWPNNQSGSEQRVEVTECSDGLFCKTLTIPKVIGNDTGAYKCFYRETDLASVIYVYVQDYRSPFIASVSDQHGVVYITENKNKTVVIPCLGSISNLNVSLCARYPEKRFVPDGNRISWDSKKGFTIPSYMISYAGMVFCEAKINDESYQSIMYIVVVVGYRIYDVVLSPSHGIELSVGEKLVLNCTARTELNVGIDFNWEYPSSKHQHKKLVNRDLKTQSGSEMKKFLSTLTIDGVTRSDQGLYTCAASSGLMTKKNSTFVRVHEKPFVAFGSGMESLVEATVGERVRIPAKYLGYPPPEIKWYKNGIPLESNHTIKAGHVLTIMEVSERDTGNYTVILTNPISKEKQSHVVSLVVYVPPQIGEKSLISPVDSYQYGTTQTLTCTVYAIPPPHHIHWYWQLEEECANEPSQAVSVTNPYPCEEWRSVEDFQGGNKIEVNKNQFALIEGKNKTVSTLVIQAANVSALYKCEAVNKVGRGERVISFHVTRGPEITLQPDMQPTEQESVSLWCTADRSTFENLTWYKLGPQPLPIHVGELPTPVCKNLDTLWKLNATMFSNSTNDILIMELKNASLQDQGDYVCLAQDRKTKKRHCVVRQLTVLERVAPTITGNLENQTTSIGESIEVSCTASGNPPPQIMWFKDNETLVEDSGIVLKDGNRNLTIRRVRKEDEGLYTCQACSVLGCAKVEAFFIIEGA
row,Binder,binding result
1,"anti-human VEGF receptor Flt-1 mouse monoclonal antibody KM1732 (antibody, V domains shown, Mouse IgG1 from hybridoma KM1732 (FERM BP-5698); also called anti-human Flt-1 monoclonal antibody KM1732) VH: QGQMQQSGAELVKPGASVKLSCKPSGFTFSSNYISWLKQKPGQSLEWIAWIYAGTGDASYNQKFTAKAHVTVDTSSSTAYMQLSSLTTEDSAIYYCARHGGDGYWFAYWGQGTLVTVSA VL: QLVLTQSPAIMSASQGEKVTMTCSASSSVSYMHWYQQKSGTSPKRWIYDTSKLPSGVPARFSGSGSGTSYSLTISSMEAEDAATYYCQQWSSNPPTFGAGTKLELK",no binding (tested: 0.1 µg/ml)
2,"anti-human VEGF receptor Flt-1 mouse monoclonal antibody KM1750 (antibody, V domains shown, Mouse IgG2b from hybridoma KM1750 (FERM BP-5700)) VH: QAFLQQSGAELVRPGASVKMSCKASGYTFINYNMHWVKQTPRQGLEWIGAIFPGNGFTSYNQKFKGKATLTVDKSSSTVYMQLRSLTSEDSAVYFCARDGDYYFDYWGQGTTLTVSS VL: QIVLTQSPAIMSASLGEEITLTCSASSSVSYMHWYQQKSGTSPKLLIYRTSNLASGVPFRFSGSGSGTFYSLTISSVEAEDAADYYCHQWSMYTFGGGTKLEIK",no binding (tested: 0.1 µg/ml)

# Biological target: T1, soluble human VEGF receptor KDR 7N
# Assay: ELISA, receptor coated at 10 µg/ml (3-fold dilutions)
row,Binder,binding result
1,"anti-human VEGF receptor Flt-1 human CDR-grafted antibody KM8550 (antibody, V domains shown, Human CDR-grafted IgG; also called 1750HV0 + 1750LV0(I); pKANTEX1750HV0LV0(I)) VH: QVQLVQSGAEVKKPGASVKVSCKASGYTFINYNMHWVRQAPGQGLEWMGAIFPGNGFTSYNQKFKGRVTITVDKSTSTAYMELSSLRSEDTAVYYCARDGDYYFDYWGQGTLVTVSS VL: DIQMTQSPSSLSASVGDRVTITCSASSSVSYMHWYQQKPGKAPKLLIYRTSNLASGVPSRFSGSGSGTDFTLTISSLQPEDFATYYCHQWSMYTFGQGTKVEIK",no binding (tested: 5 µg/ml)
2,"anti-human VEGF receptor Flt-1 human CDR-grafted antibody KM8551 (antibody, V domains shown, Human CDR-grafted IgG; also called 1750HV0 + 1750LV0(IV); pKANTEX1750HV0LV0(IV)) VH: QVQLVQSGAEVKKPGASVKVSCKASGYTFINYNMHWVRQAPGQGLEWMGAIFPGNGFTSYNQKFKGRVTITVDKSTSTAYMELSSLRSEDTAVYYCARDGDYYFDYWGQGTLVTVSS VL: DIVMTQSPDSLAVSLGERATINCSASSSVSYMHWYQQKPGQPPKLLIYRTSNLASGVPDRFSGSGSGTDFTLTISSLQAEDVAVYYCHQWSMYTFGQGTKVEIK",no binding (tested: 5 µg/ml)
3,"anti-human VEGF receptor Flt-1 human CDR-grafted antibody KM8554 (antibody, V domains shown, Human CDR-grafted IgG with modified FR in VL; also called 1750HV0 + 1750LV4; pKANTEX1750HV0LV4) VH: QVQLVQSGAEVKKPGASVKVSCKASGYTFINYNMHWVRQAPGQGLEWMGAIFPGNGFTSYNQKFKGRVTITVDKSTSTAYMELSSLRSEDTAVYYCARDGDYYFDYWGQGTLVTVSS VL: DIQMTQSPSSLSASVGEEVTITCSASSSVSYMHWYQQKPGKAPKLLIYRTSNLASGVPSRFSGSGSGTFYTLTISSLQPEDFATYYCHQWSMYTFGQGTKVEIK",no binding (tested: 5 µg/ml)
4,"anti-human VEGF receptor Flt-1 human CDR-grafted antibody KM8553 (antibody, V domains shown, Human CDR-grafted IgG with modified FR in VH; also called 1750HV3 + 1750LV0(IV); pKANTEX1750HV3LV0(IV)) VH: QVQLVQSGAEVKKPGASVKVSCKASGYTFINYNMHWVRQAPGQGLEWMGAIFPGNGFTSYNQKFKGRVTITVDKSTSTAYMQLRSLRSEDTAVYFCARDGDYYFDYWGQGTLVTVSS VL: DIVMTQSPDSLAVSLGERATINCSASSSVSYMHWYQQKPGQPPKLLIYRTSNLASGVPDRFSGSGSGTDFTLTISSLQAEDVAVYYCHQWSMYTFGQGTKVEIK",no binding (tested: 5 µg/ml)
5,"anti-human VEGF receptor Flt-1 human CDR-grafted antibody KM8555 (antibody, V domains shown, Human CDR-grafted IgG with modified FR in VH and VL; also called 1750HV3 + 1750LV4; pKANTEX1750HV3LV4) VH: QVQLVQSGAEVKKPGASVKVSCKASGYTFINYNMHWVRQAPGQGLEWMGAIFPGNGFTSYNQKFKGRVTITVDKSTSTAYMQLRSLRSEDTAVYFCARDGDYYFDYWGQGTLVTVSS VL: DIQMTQSPSSLSASVGEEVTITCSASSSVSYMHWYQQKPGKAPKLLIYRTSNLASGVPSRFSGSGSGTFYTLTISSLQPEDFATYYCHQWSMYTFGQGTKVEIK",no binding (tested: 5 µg/ml)
6,"anti-human VEGF receptor Flt-1 human CDR-grafted antibody KM8552 (antibody, V domains shown, Human CDR-grafted IgG with modified FR in VH; also called 1750HV3 + 1750LV0(I); pKANTEX1750HV3LV0(I)) VH: QVQLVQSGAEVKKPGASVKVSCKASGYTFINYNMHWVRQAPGQGLEWMGAIFPGNGFTSYNQKFKGRVTITVDKSTSTAYMQLRSLRSEDTAVYFCARDGDYYFDYWGQGTLVTVSS VL: DIQMTQSPSSLSASVGDRVTITCSASSSVSYMHWYQQKPGKAPKLLIYRTSNLASGVPSRFSGSGSGTDFTLTISSLQPEDFATYYCHQWSMYTFGQGTKVEIK",no binding (tested: 5 µg/ml)

# Biological target: T1, soluble human VEGF receptor KDR 7N
# Assay: ELISA, receptor coated at 4 µg/ml, antibody concentration varied
row,Binder,binding result
1,"anti-human VEGF receptor Flt-1 human chimeric antibody KM2532 (antibody, V domains shown) VH: QGQMQQSGAELVKPGASVKLSCKPSGFTFSSNYISWLKQKPGQSLEWIAWIYAGTGDASYNQKFTAKAHVTVDTSSSTAYMQLSSLTTEDSAIYYCARHGGDGYWFAYWGQGTLVTVSA VL: QLVLTQSPAIMSASQGEKVTMTCSASSSVSYMHWYQQKSGTSPKRWIYDTSKLPSGVPARFSGSGSGTSYSLTISSMEAEDAATYYCQQWSSNPPTFGAGTKLELK",no binding (tested: 0.0152 to 100 ng/ml)
2,"anti-human VEGF receptor Flt-1 human chimeric antibody KM2550 (antibody, V domains shown) VH: QAFLQQSGAELVRPGASVKMSCKASGYTFINYNMHWVKQTPRQGLEWIGAIFPGNGFTSYNQKFKGKATLTVDKSSSTVYMQLRSLTSEDSAVYFCARDGDYYFDYWGQGTTLTVSS VL: QIVLTQSPAIMSASLGEEITLTCSASSSVSYMHWYQQKSGTSPKLLIYRTSNLASGVPFRFSGSGSGTFYSLTISSVEAEDAADYYCHQWSMYTFGGGTKLEIK",no binding (tested: 0.0152 to 100 ng/ml)
